Measured values reported in PMC3142614.

Target: recombinant AvrM-A Δ28 with an N-terminal hexahistidine tag (Melampsora lini (flax rust))
Assay: SEC-MALS

Substance: recombinant AvrM-A Δ28 with an N-terminal hexahistidine tag (natural protein)
- stoichiometry N: 2
